# Source: US20220010021A1 (Sanofi, published 2022)
# Legend:
# [1] = molecular target: human FGFR1c/KLB receptor complex on iLite FGF21 Assay Ready Cells (human, UniProt P11362 22-822; Q86Z14 1-1044); experiment: cell-based or functional assay; for Mean E max (%): reference of the scale not given here
# human beta-Klotho (KLB) [2] = molecular target: T1, human beta-Klotho (KLB) (human, UniProt Q86Z14 53-997); experiment: BLI off-rate screening, mAb captured, KLB analyte;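 note: Off-rate taken from the dissociation phase, biosensors held in D-PBS with 0.1% BSA over 1800 s, antibody supernatants diluted to 25 µg/mL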
# T1 construct: bought protein, used as analyte in the off-rate screening; also called human KLB; β-Klotho
# T1 sequence (looked up): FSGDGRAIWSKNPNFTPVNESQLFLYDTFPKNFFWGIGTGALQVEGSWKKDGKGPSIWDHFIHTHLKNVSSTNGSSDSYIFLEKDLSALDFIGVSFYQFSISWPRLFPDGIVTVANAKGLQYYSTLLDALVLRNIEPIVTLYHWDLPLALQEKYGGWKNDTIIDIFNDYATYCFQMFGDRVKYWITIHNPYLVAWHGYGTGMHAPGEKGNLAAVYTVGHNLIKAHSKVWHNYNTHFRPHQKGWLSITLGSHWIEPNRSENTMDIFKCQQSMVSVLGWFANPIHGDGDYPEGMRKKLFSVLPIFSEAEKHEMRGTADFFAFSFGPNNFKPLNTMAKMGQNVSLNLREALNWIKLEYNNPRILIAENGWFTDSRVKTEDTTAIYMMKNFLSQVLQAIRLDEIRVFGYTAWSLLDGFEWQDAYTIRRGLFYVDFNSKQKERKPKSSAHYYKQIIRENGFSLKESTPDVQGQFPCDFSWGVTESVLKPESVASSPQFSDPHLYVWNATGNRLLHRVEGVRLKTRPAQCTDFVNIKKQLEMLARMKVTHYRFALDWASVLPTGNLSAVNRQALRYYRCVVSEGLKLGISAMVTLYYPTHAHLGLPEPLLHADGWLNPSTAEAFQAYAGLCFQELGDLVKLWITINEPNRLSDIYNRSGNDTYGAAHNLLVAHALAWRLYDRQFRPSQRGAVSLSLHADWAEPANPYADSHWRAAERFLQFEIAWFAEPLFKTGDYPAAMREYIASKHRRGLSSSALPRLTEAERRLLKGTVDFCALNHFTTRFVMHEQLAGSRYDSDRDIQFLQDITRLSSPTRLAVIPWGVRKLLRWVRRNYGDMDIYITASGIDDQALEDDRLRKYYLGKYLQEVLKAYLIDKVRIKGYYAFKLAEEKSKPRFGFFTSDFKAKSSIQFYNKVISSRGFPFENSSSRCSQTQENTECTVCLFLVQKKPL
# human beta-Klotho (KLB) [3] = molecular target: T2, human beta-Klotho (KLB) (human, UniProt Q86Z14 53-997); experiment: SPR
# T2 construct: bought protein; also called human KLB
# T2 sequence (looked up): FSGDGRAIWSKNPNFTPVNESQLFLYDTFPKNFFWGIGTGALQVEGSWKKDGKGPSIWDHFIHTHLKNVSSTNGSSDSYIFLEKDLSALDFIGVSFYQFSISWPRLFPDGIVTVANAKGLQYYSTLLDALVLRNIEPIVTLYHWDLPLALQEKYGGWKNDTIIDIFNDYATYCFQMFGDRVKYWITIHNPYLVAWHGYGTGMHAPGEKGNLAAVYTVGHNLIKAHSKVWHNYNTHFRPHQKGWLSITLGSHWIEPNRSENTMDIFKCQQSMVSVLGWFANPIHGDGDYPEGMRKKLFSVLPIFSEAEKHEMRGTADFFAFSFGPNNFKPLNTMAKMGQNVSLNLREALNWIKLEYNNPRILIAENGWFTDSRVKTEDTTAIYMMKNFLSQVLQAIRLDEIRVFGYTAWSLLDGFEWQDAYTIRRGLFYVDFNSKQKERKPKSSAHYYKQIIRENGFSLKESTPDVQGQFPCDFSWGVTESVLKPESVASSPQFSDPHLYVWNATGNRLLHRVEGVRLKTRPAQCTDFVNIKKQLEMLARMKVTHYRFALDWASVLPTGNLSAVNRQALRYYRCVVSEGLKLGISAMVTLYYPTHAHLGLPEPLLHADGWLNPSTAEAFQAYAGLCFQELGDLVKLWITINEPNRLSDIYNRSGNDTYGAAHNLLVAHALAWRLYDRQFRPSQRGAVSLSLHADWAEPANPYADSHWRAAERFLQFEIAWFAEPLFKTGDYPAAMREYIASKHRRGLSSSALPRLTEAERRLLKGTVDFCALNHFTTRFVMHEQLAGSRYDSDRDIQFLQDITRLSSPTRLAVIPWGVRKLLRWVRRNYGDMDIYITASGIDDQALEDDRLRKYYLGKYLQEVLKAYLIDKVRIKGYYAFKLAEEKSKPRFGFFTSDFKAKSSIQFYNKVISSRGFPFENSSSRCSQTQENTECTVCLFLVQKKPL
# [4] = molecular target: human FGFR1c + KLB receptor complex on HEK293 iLite FGF21 reporter cells (human, UniProt P11362 22-822; Q86Z14 1-1044); experiment: cell-based or functional assay
# Sequence of human FGFR1c + KLB receptor complex on HEK293 iLite FGF21 reporter cells (P11362 22-822, chain 1 of 2): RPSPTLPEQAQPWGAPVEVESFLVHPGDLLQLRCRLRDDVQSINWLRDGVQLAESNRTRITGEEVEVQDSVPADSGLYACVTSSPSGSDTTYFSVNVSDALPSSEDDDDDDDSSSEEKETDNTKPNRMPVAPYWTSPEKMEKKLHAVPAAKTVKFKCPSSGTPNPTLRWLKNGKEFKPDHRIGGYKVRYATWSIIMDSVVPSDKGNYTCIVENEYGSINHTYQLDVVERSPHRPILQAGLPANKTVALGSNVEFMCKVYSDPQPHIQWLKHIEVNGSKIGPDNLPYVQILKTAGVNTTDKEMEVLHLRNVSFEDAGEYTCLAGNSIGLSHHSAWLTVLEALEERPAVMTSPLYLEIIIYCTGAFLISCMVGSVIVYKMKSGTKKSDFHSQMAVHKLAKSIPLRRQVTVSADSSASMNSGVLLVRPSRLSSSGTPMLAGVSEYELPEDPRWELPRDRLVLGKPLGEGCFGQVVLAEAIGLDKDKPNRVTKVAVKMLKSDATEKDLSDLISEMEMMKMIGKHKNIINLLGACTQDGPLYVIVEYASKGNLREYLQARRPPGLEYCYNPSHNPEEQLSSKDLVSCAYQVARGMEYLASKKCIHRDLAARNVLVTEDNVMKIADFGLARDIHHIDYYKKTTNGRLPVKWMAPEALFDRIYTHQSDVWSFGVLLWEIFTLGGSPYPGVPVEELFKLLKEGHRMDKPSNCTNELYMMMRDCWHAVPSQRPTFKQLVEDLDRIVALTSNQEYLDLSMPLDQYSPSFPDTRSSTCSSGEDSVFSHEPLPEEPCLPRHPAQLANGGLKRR
# Sequence of human FGFR1c + KLB receptor complex on HEK293 iLite FGF21 reporter cells (Q86Z14 whole entry, chain 2 of 2): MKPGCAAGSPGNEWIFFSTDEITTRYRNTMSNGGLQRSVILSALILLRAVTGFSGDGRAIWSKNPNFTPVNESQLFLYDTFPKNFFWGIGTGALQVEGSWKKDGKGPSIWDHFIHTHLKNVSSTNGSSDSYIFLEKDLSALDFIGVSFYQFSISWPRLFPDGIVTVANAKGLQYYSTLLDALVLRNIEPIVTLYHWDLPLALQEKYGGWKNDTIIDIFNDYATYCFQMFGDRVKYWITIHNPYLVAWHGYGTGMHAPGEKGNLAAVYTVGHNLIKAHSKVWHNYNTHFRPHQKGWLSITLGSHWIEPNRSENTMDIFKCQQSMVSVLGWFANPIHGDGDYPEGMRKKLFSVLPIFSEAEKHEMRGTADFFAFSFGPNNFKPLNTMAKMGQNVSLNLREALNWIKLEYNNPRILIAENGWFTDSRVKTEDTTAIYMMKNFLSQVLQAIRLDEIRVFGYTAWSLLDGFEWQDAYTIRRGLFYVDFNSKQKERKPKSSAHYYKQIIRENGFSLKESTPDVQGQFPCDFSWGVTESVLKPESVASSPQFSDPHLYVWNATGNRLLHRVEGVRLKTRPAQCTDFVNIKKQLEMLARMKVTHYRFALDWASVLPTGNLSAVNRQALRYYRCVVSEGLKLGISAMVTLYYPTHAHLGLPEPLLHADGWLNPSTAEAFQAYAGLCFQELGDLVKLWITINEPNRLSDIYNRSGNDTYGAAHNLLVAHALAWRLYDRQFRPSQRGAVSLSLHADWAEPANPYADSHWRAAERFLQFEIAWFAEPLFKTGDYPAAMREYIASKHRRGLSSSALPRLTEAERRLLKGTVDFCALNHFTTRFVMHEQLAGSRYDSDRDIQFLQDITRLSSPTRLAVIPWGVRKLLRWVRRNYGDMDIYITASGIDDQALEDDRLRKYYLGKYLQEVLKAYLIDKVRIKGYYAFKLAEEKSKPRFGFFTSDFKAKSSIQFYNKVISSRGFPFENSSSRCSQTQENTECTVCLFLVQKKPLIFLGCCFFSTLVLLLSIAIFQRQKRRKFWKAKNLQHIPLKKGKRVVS
# Sequence of human FGFR1c/KLB receptor complex on iLite FGF21 Assay Ready Cells (P11362 22-822, chain 1 of 2): as the sequence (P11362 22-822, chain 1 of 2) above
# Sequence of human FGFR1c/KLB receptor complex on iLite FGF21 Assay Ready Cells (Q86Z14 whole entry, chain 2 of 2): as the sequence (Q86Z14 whole entry, chain 2 of 2) above
Binder,Mean E max (%) [1],Mean EC50 [1],koff (human beta-Klotho (KLB) [2]),koff (human beta-Klotho (KLB) [3]),EC50 [4],Emax [4]
"16H7 variant with light chain substitution V98T (antibody, V domains shown) VH: not shown VL: SYVLTQPPSVSVAPGQTARITCGGNNIGSESVHWYQQKPGQAPVLVVYDDSDRPSGIPERFSGSNSGNTATLTISRVEAGDEADYYCQVWDGNSDHVTFGGGTKLTVLG",99%,88 pM,3.1e-05 s⁻¹,,,
"Ab0195 (antibody, IgG4, V domains shown, IgG4 PE) VH: not shown VL: SYVLTQPPSVSVAPGQTARITCGGNNIGSESVHWYQQKPGQAPVLVVYYDSDRPSGIPERFSGSNSGNTATLTISRVEAGDEADYYCQVWDGNSDHVVFGGGTKLTVLG",,,,0.00267 s⁻¹,140 pM,2030%
"Ab0198 (antibody, IgG4, V domains shown, IgG4 PE) VH: not shown VL: SYVLTQPPSVSVAPGQTARITCGGNNIGSESVHWYQQKPGQAPVLVVYDDSDRPSGIPERFSGSNSGNTATLTISRVEAGDEADYYCQVWDGESDHVVFGGGTKLTVLG",,,,0.000346 s⁻¹,50 pM,2770%
"Ab0203 (antibody, IgG4, V domains shown, IgG4 PE) VH: QVTLKESGPVLVKPTETLTLTCTVSGFSLNNARVGVSWIRQPPGKALEWLAHIFSNDEKSYSTSLKSRLTISKDTSKSQVVLTMTNMDPVDTATYYCARSVVTGGYYYEGMDVWGQGTTVTVSS VL: SYVLTQPPSVSVAPGQTARITCGGNNIGSESVHWYQQKPGQAPVLVVYDESDRPSGIPERFSGSNSGNTATLTISRVEAGDEADYYCQVWDGNSDHVVFGGGTKLTVLG",,,,0.00151 s⁻¹,50 pM,1600%
"Ab0191 (antibody, IgG4, V domains shown, IgG4 PE) VH: not shown VL: SYVLTQPPSVSVAPGQTARITCGGNNIGSESVHWYQQKPGQAPVLVVYDDSDRPSGIPERFSGSNSGNTATLTISRVEAGDEADYYCQVWDGESDHVVFGGGTKLTVLG",,,,0.000144 s⁻¹,40 pM,2470%
"Ab0197 (antibody, IgG4, V domains shown, IgG4 PE) VH: not shown VL: SYVLTQPPSVSVAPGQTARITCGGNNIGSESVHWYQQKPGQAPVLVVYDDSDRPSGIPERFSGSNSGNTATLTISRVEAGDEADYYCQVWTGNSDHVVFGGGTKLTVLG",,,,0.00167 s⁻¹,80 pM,2000%
"Ab0190 (antibody, IgG4, V domains shown, IgG4 PE) VH: not shown VL: SYVLTQPPSVSVAPGQTARITCGGNNIGSESVHWYQQKPGQAPVLVVYDDSDRPSGIPERFSGSNSGNTATLTISRVEAGDEADYYCQVWTGNSDHVVFGGGTKLTVLG",,,,0.000195 s⁻¹,50 pM,2370%
"Ab0194 (antibody, IgG4, V domains shown, IgG4 PE) VH: not shown VL: SYVLTQPPSVSVAPGQTARITCGGSNIGSESVHWYQQKPGQAPVLVVYDDSDRPSGIPERFSGSNSGNTATLTISRVEAGDEADYYCQVWDGNSDHVVFGGGTKLTVLG",,,,0.000402 s⁻¹,60 pM,2550%
"Ab0204 (antibody, IgG4, V domains shown, IgG4 PE) VH: QVTLKESGPVLVKPTETLTLTCTVSGFSLNNARVGVSWIRQPPGKALEWLAHIFSNDEKSYSTSLKSRLTISKDTSKSQVVLTMTNMDPVDTATYYCARSVVTGGYYYEGMDVWGQGTTVTVSS VL: SYVLTQPPSVSVAPGQTARITCGGNNIGSESVHWYQQKPGQAPVLVVYDDSDRPSGIPERFSGSNSGNTATLTISRVEAGDEADYYCQVWTGNSDHVVFGGGTKLTVLG",,,,0.00133 s⁻¹,40 pM,1420%
"Ab0202 (antibody, IgG4, V domains shown, IgG4 PE) VH: QVTLKESGPVLVKPTETLTLTCTVSGFSLNNARVGVSWIRQPPGKALEWLAHIFSNDEKSYSTSLKSRLTISKDTSKSQVVLTMTNMDPVDTATYYCARSVVTGGYYYEGMDVWGQGTTVTVSS VL: SYVLTQPPSVSVAPGQTARITCGGNNIGSESVHWYQQKPGQAPVLVVYYDSDRPSGIPERFSGSNSGNTATLTISRVEAGDEADYYCQVWDGNSDHVVFGGGTKLTVLG",,,,0.00161 s⁻¹,70 pM,1510%
"Ab0188 (antibody, IgG4, V domains shown, IgG4 PE) VH: not shown VL: SYVLTQPPSVSVAPGQTARITCGGNNIGSESVHWYQQKPGQAPVLVVYYDSDRPSGIPERFSGSNSGNTATLTISRVEAGDEADYYCQVWDGNSDHVVFGGGTKLTVLG",,,,0.00084 s⁻¹,60 pM,2410%
"Ab0180 (antibody, IgG4, V domains shown, IgG4 PE) VH: not shown VL: SYVLTQPPSVSVAPGQTARITCGGSNIGSESVHWYQQKPGQAPVLVVYDDSDRPSGIPERFSGSNSGNTATLTISRVEAGDEADYYCQVWDGNSDHVVFGGGTKLTVLG",,,,0.00024 s⁻¹,50 pM,2710%
"Ab0201 (antibody, IgG4, V domains shown, IgG4 PE) VH: QVTLKESGPVLVKPTETLTLTCTVSGFSLNNARVGVSWIRQPPGKALEWLAHIFSNDEKSYSTSLKSRLTISKDTSKSQVVLTMTNMDPVDTATYYCARSVVTGGYYYEGMDVWGQGTTVTVSS VL: SYVLTQPPSVSVAPGQTARITCGGSNIGSESVHWYQQKPGQAPVLVVYDDSDRPSGIPERFSGSNSGNTATLTISRVEAGDEADYYCQVWDGNSDHVVFGGGTKLTVLG",,,,0.000336 s⁻¹,50 pM,2490%
"Ab0182 (antibody, IgG4, V domains shown, IgG4 PE) VH: not shown VL: SYVLTQPPSVSVAPGQTARITCGGNNIGSESVHWYQQKPGQAPVLVVYDESDRPSGIPERFSGSNSGNTATLTISRVEAGDEADYYCQVWDGNSDHVVFGGGTKLTVLG",,,,0.000577 s⁻¹,20 pM,2290%
"Ab0189 (antibody, IgG4, V domains shown, IgG4 PE) VH: not shown VL: SYVLTQPPSVSVAPGQTARITCGGNNIGSESVHWYQQKPGQAPVLVVYDESDRPSGIPERFSGSNSGNTATLTISRVEAGDEADYYCQVWDGNSDHVVFGGGTKLTVLG",,,,0.000387 s⁻¹,60 pM,2760%
"Ab0208 (antibody, IgG4, V domains shown, IgG4 PE) VH: not shown VL: SYVLTQPPSVSVAPGQTARITCGGSNIGSESVHWYQQKPGQAPVLVVYDDSDRPSGIPERFSGSNSGNTATLTISRVEAGDEADYYCQVWDGNSDHVVFGGGTKLTVLG",,,,0.0021 s⁻¹,270 pM,1270%
"Ab0212 (antibody, IgG4, V domains shown, IgG4 PE) VH: not shown VL: SYVLTQPPSVSVAPGQTARITCGGNNIGSESVHWYQQKPGQAPVLVVYDDSDRPSGIPERFSGSNSGNTATLTISRVEAGDEADYYCQVWDGESDHVVFGGGTKLTVLG",,,,0.00185 s⁻¹,70 pM,1640%
"16H7 variant with light chain substitution V98Y (antibody, V domains shown) VH: not shown VL: SYVLTQPPSVSVAPGQTARITCGGNNIGSESVHWYQQKPGQAPVLVVYDDSDRPSGIPERFSGSNSGNTATLTISRVEAGDEADYYCQVWDGNSDHVYFGGGTKLTVLG",100%,109 pM,5.9e-05 s⁻¹,,,
"Ab0187 (antibody, IgG4, V domains shown, IgG4 PE) VH: not shown VL: SYVLTQPPSVSVAPGQTARITCGGSNIGSESVHWYQQKPGQAPVLVVYDDSDRPSGIPERFSGSNSGNTATLTISRVEAGDEADYYCQVWDGNSDHVVFGGGTKLTVLG",,,,0.000156 s⁻¹,40 pM,2780%
"Ab0205 (antibody, IgG4, V domains shown, IgG4 PE) VH: QVTLKESGPVLVKPTETLTLTCTVSGFSLNNARVGVSWIRQPPGKALEWLAHIFSNDEKSYSTSLKSRLTISKDTSKSQVVLTMTNMDPVDTATYYCARSVVTGGYYYEGMDVWGQGTTVTVSS VL: SYVLTQPPSVSVAPGQTARITCGGNNIGSESVHWYQQKPGQAPVLVVYDDSDRPSGIPERFSGSNSGNTATLTISRVEAGDEADYYCQVWDGESDHVVFGGGTKLTVLG",,,,0.000334 s⁻¹,20 pM,2120%
"16H7 variant with light chain substitution V98W (antibody, V domains shown) VH: not shown VL: SYVLTQPPSVSVAPGQTARITCGGNNIGSESVHWYQQKPGQAPVLVVYDDSDRPSGIPERFSGSNSGNTATLTISRVEAGDEADYYCQVWDGNSDHVWFGGGTKLTVLG",99%,99 pM,5.6e-05 s⁻¹,,,
"Ab0196 (antibody, IgG4, V domains shown, IgG4 PE) VH: not shown VL: SYVLTQPPSVSVAPGQTARITCGGNNIGSESVHWYQQKPGQAPVLVVYDESDRPSGIPERFSGSNSGNTATLTISRVEAGDEADYYCQVWDGNSDHVVFGGGTKLTVLG",,,,0.00194 s⁻¹,120 pM,2050%
